From paper PMC5513931 come the findings set out here.

In this experiment the target is T1, protease-activated receptor 2 (rat (endogenous in isolated Sprague Dawley rat arteries)) (UniProt Q63645).
T1 sequence: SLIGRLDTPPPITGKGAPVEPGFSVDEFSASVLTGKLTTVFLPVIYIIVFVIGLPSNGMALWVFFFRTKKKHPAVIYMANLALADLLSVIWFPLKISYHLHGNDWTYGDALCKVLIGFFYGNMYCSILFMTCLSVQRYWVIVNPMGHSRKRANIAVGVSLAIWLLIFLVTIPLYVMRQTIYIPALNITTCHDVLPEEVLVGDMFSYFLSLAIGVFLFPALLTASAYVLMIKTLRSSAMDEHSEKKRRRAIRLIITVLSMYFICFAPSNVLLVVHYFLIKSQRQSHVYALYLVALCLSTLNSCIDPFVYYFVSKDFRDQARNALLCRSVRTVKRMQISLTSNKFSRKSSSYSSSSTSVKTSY

B1: PAR-2 peptide agonist SLIGRL (peptide)
peptide: SLIGRL
Molecule B1 yielded an EC50 of vasodilatation to SLIGRL (10 nM-10 uM), wire myography, MRA pre-constricted with 1 uM phenylephrine, control of 7.02 µM; an EC50 of vasodilatation to SLIGRL (100 nM-100 uM), wire myography, basilar artery pre-constricted with 1 uM 5-HT, control of 9.65 µM; an EC50 of vasodilatation to SLIGRL, wire myography, MRA from heparin-treated rats with 0.1 mM L-NNA, control of 86.4 µM; an EC50 of vasodilatation to SLIGRL, wire myography, MRA from heparin-treated rats with 0.1 mM L-NNA, pre-incubated with 10 uM apixaban of 6.45 µM. This molecule came in with an EC50 of vasodilatation to SLIGRL, wire myography, MRA from heparin-treated rats, control of 1.04 µM; an EC50 of vasodilatation to SLIGRL, wire myography, MRA from heparin-treated rats, pre-incubated with 10 uM apixaban of 0.71 µM; an EC50 of vasodilatation to SLIGRL, wire myography, MRA pre-constricted with 1 uM phenylephrine, pre-incubated with 10 uM apixaban of 1.83 µM; an EC50 of vasodilatation to SLIGRL, wire myography, MRA with 0.1 mM L-NNA, control of 3.03 µM. The EC50 of vasodilatation to SLIGRL, wire myography, MRA with 0.1 mM L-NNA, pre-incubated with 10 uM apixaban amounted to 2.27 µM; the EC50 of vasodilatation to SLIGRL, wire myography, basilar artery pre-constricted with 1 uM 5-HT, pre-incubated with 10 uM apixaban turned out to be 4.41 µM; the EC50 of vasodilatation to SLIGRL, wire myography, basilar artery with 0.1 mM L-NNA, control turned out to be 34.1 µM; the EC50 of vasodilatation to SLIGRL, wire myography, basilar artery with 0.1 mM L-NNA, pre-incubated with 10 uM apixaban was determined as 20.3 µM.
